± gives the uncertainty stated by the source.
Test: protein stability index of a GFP-peptide fusion (yeast GPS) (PSI 1-4); higher = more stable; sorted into four equal gates, so the index is relative within each strain
Method in brief: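 The protein stability index of a peptide was calculated by multiplying its read frequency in each gate by that gate's number and adding the products. The peptides were tiled 17-residue stretches of yeast proteins, fused downstream of GFP on a Cherry-expressing plasmid and carried in yeast as a pooled library. Mid-log cultures in leucine-free medium were sorted into four equal gates by GFP/Cherry ratio, and each gate's plasmids were PCR-amplified and Illumina-sequenced.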

Sequence | protein stability index (doa10∆) | protein stability index (pdr5∆) | protein stability index (san1∆) | protein stability index (ubr1∆)
LSNPSNQNICTSVTRRS [GRR1] | 2.42 ± 0.083 | 2.49 ± 0.052 | 2.62 ± 0.055 | 2.53 ± 0.039
KTAQTLDENLNSLSSNL [YJL041W/NSP1] | 2.48 ± 0.04 | 2.29 ± 0.055 | 2.23 ± 0.061 | 2.46 ± 0.037
AVLKKIQSKAVEQGYED [YCG1] | 3.05 ± 0.12 | 3.38 ± 0.092 | 3.08 ± 0.072 | 3.07 ± 0.084
SSAKRSKNTAVSKVQKR [SRP72] | 2.25 ± 0.11 | 2.77 ± 0.11 | 2.09 ± 0.11 | 2.32 ± 0.069
VPSAKPLILTPPQLANQ [SNF11] | 2.63 ± 0.049 | 2.26 ± 0.052 | 2.64 ± 0.052 | 2.03 ± 0.033
FSNVELPQCIIPSSYIK [ARP7] | 2.38 ± 0.042 | 2.38 ± 0.041 | 2.28 ± 0.051 | 2.45 ± 0.032
PTQTVAELDLMSGILHC [RPN6] | 2.8 ± 0.06 | 3.07 ± 0.054 | 2.95 ± 0.047 | 3.1 ± 0.051
HVTQEDFELAVGKVMNK [RPT6] | 2.83 ± 0.17 | 2.82 ± 0.13 | 2.62 ± 0.13 | 2.69 ± 0.15
DFITGSYLISHKDSFYD [RPO31] | 2.02 ± 0.066 | 1.94 ± 0.049 | 2.13 ± 0.064 | 1.83 ± 0.045
HFNGIRRLDALVEKVYA [ITC1] | 3.65 ± 0.11 | 2.77 ± 0.068 | 1.94 ± 0.28 | 2.95 ± 0.089
GKLWKDVKARIAAGDGD [QCR9] | 2.3 ± 0.11 | 2.58 ± 0.16 | 2.17 ± 0.07 | 2.37 ± 0.098
QAAGGLSIRLTNQLKSL [RPN8] | 2.75 ± 0.085 | 2.57 ± 0.088 | 2.29 ± 0.11 | 2.19 ± 0.06
KRPGKLSDYIPGPYPNE [CYT1] | 3.19 ± 0.059 | 3.22 ± 0.06 | 3.24 ± 0.041 | 3.16 ± 0.037
AASVIGMLVALGRLSVR [RPC82] |  | 1.32 ± 0.07 | 1.11 ± 0.23 | 1.24 ± 0.097
LDTYRERSKQLNEKFQE [SMC2] |  |  | 3.37 ± 0.12 | 
SIGEPGTQMTLKTFHFA [RPO31] |  |  | 2.56 ± 0.096 | 2.65 ± 0.17
RLGDLGVIDDSFDVAIS [SMC4] | 2.85 ± 0.14 | 2 ± 0.14 | 1.23 ± 0.25 | 1.98 ± 0.067
CVKLTVRSLLEVVQTGA [PRE6] | 2.44 ± 0.3 |  |  | 2.27 ± 0.29
SENRDKFLQEFINLLLN [IRR1] | 2.53 ± 0.069 | 2.07 ± 0.083 | 2.43 ± 0.076 | 2.21 ± 0.069
EHLDCMNFISKEEFIMM [PCI8] |  |  |  | 3.17 ± 0.16
HLERNRKDKDAKFRLIL [RPS13] | 3.22 ± 0.12 | 3.06 ± 0.13 | 3.38 ± 0.24 | 3.52 ± 0.2
NDVTNKNINIGKHSQEQ [SIR4] | 2.26 ± 0.052 | 2.46 ± 0.047 | 2.81 ± 0.045 | 2.5 ± 0.041
NFGGGNNTTPSSTGNAN [YJL041W/NSP1] | 2.05 ± 0.058 | 2.02 ± 0.055 | 1.73 ± 0.079 | 3.06 ± 0.071

Sequence | protein stability index (doa10∆) | protein stability index (pdr5∆) | protein stability index (san1∆) | protein stability index (ubr1∆)
IEVTIGIDQYSFNVKEN [AAR2] | 2.67 ± 0.053 | 2.75 ± 0.05 | 2.58 ± 0.047 | 2.76 ± 0.056
GGLKNGVLYQGNIQISE [DIS3] | 3.25 ± 0.098 | 3.27 ± 0.085 | 2.9 ± 0.072 | 3.17 ± 0.065
SKNELKKAFTSYDRTLL [RPS16A] | 2.76 ± 0.067 | 3.14 ± 0.057 | 3.12 ± 0.07 | 2.91 ± 0.077
EDNKYAIAGNSTTNSDV [RGR1] | 2.89 ± 0.13 | 2.92 ± 0.12 | 2.99 ± 0.06 | 2.93 ± 0.08
QVIKNEVCAKMPNIELY [SSN2] | 2.83 ± 0.076 | 2.81 ± 0.058 | 2.7 ± 0.074 | 2.35 ± 0.06
SKQNGSKFHFSWNESED [PRP28] | 2.73 ± 0.061 | 2.94 ± 0.064 | 2.72 ± 0.072 | 2.79 ± 0.046
IDFTLLNRLLRLIVDPN [PRP8] | 1.85 ± 0.059 | 1.88 ± 0.058 | 1.84 ± 0.071 | 1.73 ± 0.051
VQVSKAGGLPMDALTLM [RRP45] | 1.28 ± 0.12 | 1.23 ± 0.18 | 1.1 ± 0.2 | 1.08 ± 0.14
PDLDTECFISMQSTSPA [SWI1] | 2.68 ± 0.18 | 3.02 ± 0.13 | 2.32 ± 0.17 | 2.93 ± 0.07
AKNFSAQKRVVSYMMPS [SRB8] | 2.02 ± 0.17 |  | 2.28 ± 0.15 | 1.96 ± 0.13
IQNQSPQFNSPYDSNNS [SWI1] | 2.97 ± 0.057 | 3 ± 0.053 | 2.74 ± 0.052 | 2.82 ± 0.046
NNSNSNNNDNNNSNTVA [SWI1] | 2.95 ± 0.058 | 3.14 ± 0.051 | 3.04 ± 0.042 | 3.13 ± 0.045
NASQMGNTGSGGYDNAW [RPB3] | 3.36 ± 0.28 | 3.31 ± 0.17 | 3.52 ± 0.2 | 2.5 ± 0.15
AVEQRKKEKLDSGEVDA [DPB4] | 3.2 ± 0.23 | 3.21 ± 0.17 | 3.36 ± 0.1 | 3.27 ± 0.1
VRAEELNISGEFFRNKL [RPL16A] | 3.67 ± 0.21 | 3.17 ± 0.23 | 3.07 ± 0.18 | 3.36 ± 0.2
ISGYKKFSSTSRYMQYN [RPT1] | 1.26 ± 0.18 | 1.59 ± 0.15 | 1.56 ± 0.2 | 1.7 ± 0.11
YPNEVLKFNHGNYSHLM [REC8] | 2.7 ± 0.13 | 2.65 ± 0.059 | 2.76 ± 0.059 | 2.88 ± 0.061
KTAPIQESFVPNSERSG [YOR098C/NUP1] | 2.27 ± 0.24 | 2.42 ± 0.11 | 1.4 ± 0.26 | 3.03 ± 0.081
LGVVFGRGGSGWKPYYK [YML031W/NDC1] |  |  | 3.4 ± 0.12 | 
TLHLVLRLRGGGKKRKK [RPS31] | 2.34 ± 0.26 | 2.32 ± 0.084 | 2.83 ± 0.3 | 2.86 ± 0.14
IGESARIIREMFAYAKE [RPT4] | 2.31 ± 0.065 | 2.29 ± 0.064 | 2.04 ± 0.063 | 1.75 ± 0.038
EEEQDTGESEESSSEDD [IRR1] | 3.23 ± 0.2 | 3.44 ± 0.23 | 3.35 ± 0.11 | 3.43 ± 0.06
